Results taken from patent US20130288983A1 (Amgen, published 2013).

T1: Activin A (Homo sapiens (Human), UniProt P08476 311-426)
T1 sequence: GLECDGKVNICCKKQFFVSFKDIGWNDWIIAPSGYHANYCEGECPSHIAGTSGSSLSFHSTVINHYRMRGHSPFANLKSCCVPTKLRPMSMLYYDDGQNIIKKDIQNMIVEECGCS

B1: ActRIIB-IgG1 Fc E28F, linker GGGGS (Fc fusion)
chain: SGRGEAETRFCIYYNANWELERTNQSGLERCEGEQDKRLHCYASWRNSSGTIELVKKGCWLDDFNCYDRQECVATEENPQVYFCCCEGNFCNERFTHLPEAGGPEVTYEPPPTAPTGGGGSAPELLGGPSVFLFPPKPKDILMISRTPEVTCVVVDVSHEDPEVKFNWYVGGVEVHNAKTKPREEQYNSTYRVVSVLTVLHQDWLNGKEYKCKVSNKALPAPIEKTISKAKGQPREPQVYTLPPSRDELTKNQVSLTCLVKGFYPSDIAVEWESNGQPENNYKTTPPVLDSDGSFFLYSKLTVDKSRWQQGNVFSCSVMHEALHNHYTQKSLSLSPGK
notes: Tested from conditioned media
B2: ActRIIB-IgG1 Fc R40K, linker GGGGS (Fc fusion)
chain: SGRGEAETRECIYYNANWELEKTNQSGLERCEGEQDKRLHCYASWRNSSGTIELVKKGCWLDDFNCYDRQECVATEENPQVYFCCCEGNFCNERFTHLPEAGGPEVTYEPPPTAPTGGGGSAPELLGGPSVFLFPPKPKDILMISRTPEVTCVVVDVSHEDPEVKFNWYVGGVEVHNAKTKPREEQYNSTYRVVSVLTVLHQDWLNGKEYKCKVSNKALPAPIEKTISKAKGQPREPQVYTLPPSRDELTKNQVSLTCLVKGFYPSDIAVEWESNGQPENNYKTTPPVLDSDGSFFLYSKLTVDKSRWQQGNVFSCSVMHEALHNHYTQKSLSLSPGK
notes: Tested from conditioned media
B3: ActRIIB-IgG1 Fc E28K, linker GGGGS (Fc fusion)
chain: SGRGEAETRKCIYYNANWELERTNQSGLERCEGEQDKRLHCYASWRNSSGTIELVKKGCWLDDFNCYDRQECVATEENPQVYFCCCEGNFCNERFTHLPEAGGPEVTYEPPPTAPTGGGGSAPELLGGPSVFLFPPKPKDILMISRTPEVTCVVVDVSHEDPEVKFNWYVGGVEVHNAKTKPREEQYNSTYRVVSVLTVLHQDWLNGKEYKCKVSNKALPAPIEKTISKAKGQPREPQVYTLPPSRDELTKNQVSLTCLVKGFYPSDIAVEWESNGQPENNYKTTPPVLDSDGSFFLYSKLTVDKSRWQQGNVFSCSVMHEALHNHYTQKSLSLSPGK
notes: Tested from conditioned media
B4: ActRIIB-IgG1 Fc E28V, linker GGGGS (Fc fusion)
chain: SGRGEAETRVCIYYNANWELERTNQSGLERCEGEQDKRLHCYASWRNSSGTIELVKKGCWLDDFNCYDRQECVATEENPQVYFCCCEGNFCNERFTHLPEAGGPEVTYEPPPTAPTGGGGSAPELLGGPSVFLFPPKPKDILMISRTPEVTCVVVDVSHEDPEVKFNWYVGGVEVHNAKTKPREEQYNSTYRVVSVLTVLHQDWLNGKEYKCKVSNKALPAPIEKTISKAKGQPREPQVYTLPPSRDELTKNQVSLTCLVKGFYPSDIAVEWESNGQPENNYKTTPPVLDSDGSFFLYSKLTVDKSRWQQGNVFSCSVMHEALHNHYTQKSLSLSPGK
notes: Tested from conditioned media
B5: ActRIIB-IgG1 Fc E28Q, linker GGGGS (Fc fusion)
chain: SGRGEAETRQCIYYNANWELERTNQSGLERCEGEQDKRLHCYASWRNSSGTIELVKKGCWLDDFNCYDRQECVATEENPQVYFCCCEGNFCNERFTHLPEAGGPEVTYEPPPTAPTGGGGSAPELLGGPSVFLFPPKPKDILMISRTPEVTCVVVDVSHEDPEVKFNWYVGGVEVHNAKTKPREEQYNSTYRVVSVLTVLHQDWLNGKEYKCKVSNKALPAPIEKTISKAKGQPREPQVYTLPPSRDELTKNQVSLTCLVKGFYPSDIAVEWESNGQPENNYKTTPPVLDSDGSFFLYSKLTVDKSRWQQGNVFSCSVMHEALHNHYTQKSLSLSPGK
notes: Tested from conditioned media
B6: ActRIIB-IgG1 Fc R40M, linker GGGGS (Fc fusion)
chain: SGRGEAETRECIYYNANWELEMTNQSGLERCEGEQDKRLHCYASWRNSSGTIELVKKGCWLDDFNCYDRQECVATEENPQVYFCCCEGNFCNERFTHLPEAGGPEVTYEPPPTAPTGGGGSAPELLGGPSVFLFPPKPKDILMISRTPEVTCVVVDVSHEDPEVKFNWYVGGVEVHNAKTKPREEQYNSTYRVVSVLTVLHQDWLNGKEYKCKVSNKALPAPIEKTISKAKGQPREPQVYTLPPSRDELTKNQVSLTCLVKGFYPSDIAVEWESNGQPENNYKTTPPVLDSDGSFFLYSKLTVDKSRWQQGNVFSCSVMHEALHNHYTQKSLSLSPGK
notes: Tested from conditioned media
B7: ActRIIB-IgG1 Fc R40H, linker GGGGS (Fc fusion)
chain: SGRGEAETRECIYYNANWELEHTNQSGLERCEGEQDKRLHCYASWRNSSGTIELVKKGCWLDDFNCYDRQECVATEENPQVYFCCCEGNFCNERFTHLPEAGGPEVTYEPPPTAPTGGGGSAPELLGGPSVFLFPPKPKDILMISRTPEVTCVVVDVSHEDPEVKFNWYVGGVEVHNAKTKPREEQYNSTYRVVSVLTVLHQDWLNGKEYKCKVSNKALPAPIEKTISKAKGQPREPQVYTLPPSRDELTKNQVSLTCLVKGFYPSDIAVEWESNGQPENNYKTTPPVLDSDGSFFLYSKLTVDKSRWQQGNVFSCSVMHEALHNHYTQKSLSLSPGK
notes: Tested from conditioned media
B8: ActRIIB-IgG1 Fc R40G, linker GGGGS (Fc fusion)
chain: SGRGEAETRECIYYNANWELEGTNQSGLERCEGEQDKRLHCYASWRNSSGTIELVKKGCWLDDFNCYDRQECVATEENPQVYFCCCEGNFCNERFTHLPEAGGPEVTYEPPPTAPTGGGGSAPELLGGPSVFLFPPKPKDILMISRTPEVTCVVVDVSHEDPEVKFNWYVGGVEVHNAKTKPREEQYNSTYRVVSVLTVLHQDWLNGKEYKCKVSNKALPAPIEKTISKAKGQPREPQVYTLPPSRDELTKNQVSLTCLVKGFYPSDIAVEWESNGQPENNYKTTPPVLDSDGSFFLYSKLTVDKSRWQQGNVFSCSVMHEALHNHYTQKSLSLSPGK
notes: Tested from conditioned media
B9: ActRIIB-IgG1 Fc E28Y, linker GGGGS (Fc fusion)
chain: SGRGEAETRYCIYYNANWELERTNQSGLERCEGEQDKRLHCYASWRNSSGTIELVKKGCWLDDFNCYDRQECVATEENPQVYFCCCEGNFCNERFTHLPEAGGPEVTYEPPPTAPTGGGGSAPELLGGPSVFLFPPKPKDILMISRTPEVTCVVVDVSHEDPEVKFNWYVGGVEVHNAKTKPREEQYNSTYRVVSVLTVLHQDWLNGKEYKCKVSNKALPAPIEKTISKAKGQPREPQVYTLPPSRDELTKNQVSLTCLVKGFYPSDIAVEWESNGQPENNYKTTPPVLDSDGSFFLYSKLTVDKSRWQQGNVFSCSVMHEALHNHYTQKSLSLSPGK
notes: Tested from conditioned media
B10: ActRIIB-IgG1 Fc E28L, linker GGGGS (Fc fusion)
chain: SGRGEAETRLCIYYNANWELERTNQSGLERCEGEQDKRLHCYASWRNSSGTIELVKKGCWLDDFNCYDRQECVATEENPQVYFCCCEGNFCNERFTHLPEAGGPEVTYEPPPTAPTGGGGSAPELLGGPSVFLFPPKPKDILMISRTPEVTCVVVDVSHEDPEVKFNWYVGGVEVHNAKTKPREEQYNSTYRVVSVLTVLHQDWLNGKEYKCKVSNKALPAPIEKTISKAKGQPREPQVYTLPPSRDELTKNQVSLTCLVKGFYPSDIAVEWESNGQPENNYKTTPPVLDSDGSFFLYSKLTVDKSRWQQGNVFSCSVMHEALHNHYTQKSLSLSPGK
notes: Tested from conditioned media
B11: ActRIIB-IgG1 Fc E28H, linker GGGGS (Fc fusion)
chain: SGRGEAETRHCIYYNANWELERTNQSGLERCEGEQDKRLHCYASWRNSSGTIELVKKGCWLDDFNCYDRQECVATEENPQVYFCCCEGNFCNERFTHLPEAGGPEVTYEPPPTAPTGGGGSAPELLGGPSVFLFPPKPKDILMISRTPEVTCVVVDVSHEDPEVKFNWYVGGVEVHNAKTKPREEQYNSTYRVVSVLTVLHQDWLNGKEYKCKVSNKALPAPIEKTISKAKGQPREPQVYTLPPSRDELTKNQVSLTCLVKGFYPSDIAVEWESNGQPENNYKTTPPVLDSDGSFFLYSKLTVDKSRWQQGNVFSCSVMHEALHNHYTQKSLSLSPGK
notes: Tested from conditioned media
B12: ActRIIB-IgG1 Fc E28W, linker GGGGS (Fc fusion)
chain: SGRGEAETRWCIYYNANWELERTNQSGLERCEGEQDKRLHCYASWRNSSGTIELVKKGCWLDDFNCYDRQECVATEENPQVYFCCCEGNFCNERFTHLPEAGGPEVTYEPPPTAPTGGGGSAPELLGGPSVFLFPPKPKDILMISRTPEVTCVVVDVSHEDPEVKFNWYVGGVEVHNAKTKPREEQYNSTYRVVSVLTVLHQDWLNGKEYKCKVSNKALPAPIEKTISKAKGQPREPQVYTLPPSRDELTKNQVSLTCLVKGFYPSDIAVEWESNGQPENNYKTTPPVLDSDGSFFLYSKLTVDKSRWQQGNVFSCSVMHEALHNHYTQKSLSLSPGK
notes: Tested from conditioned media
B13: ActRIIB-IgG1 Fc E28M, linker GGGGS (Fc fusion)
chain: SGRGEAETRMCIYYNANWELERTNQSGLERCEGEQDKRLHCYASWRNSSGTIELVKKGCWLDDFNCYDRQECVATEENPQVYFCCCEGNFCNERFTHLPEAGGPEVTYEPPPTAPTGGGGSAPELLGGPSVFLFPPKPKDILMISRTPEVTCVVVDVSHEDPEVKFNWYVGGVEVHNAKTKPREEQYNSTYRVVSVLTVLHQDWLNGKEYKCKVSNKALPAPIEKTISKAKGQPREPQVYTLPPSRDELTKNQVSLTCLVKGFYPSDIAVEWESNGQPENNYKTTPPVLDSDGSFFLYSKLTVDKSRWQQGNVFSCSVMHEALHNHYTQKSLSLSPGK
notes: Tested from conditioned media
B14: ActRIIB-IgG1 Fc E28I, linker GGGGS (Fc fusion)
chain: SGRGEAETRICIYYNANWELERTNQSGLERCEGEQDKRLHCYASWRNSSGTIELVKKGCWLDDFNCYDRQECVATEENPQVYFCCCEGNFCNERFTHLPEAGGPEVTYEPPPTAPTGGGGSAPELLGGPSVFLFPPKPKDILMISRTPEVTCVVVDVSHEDPEVKFNWYVGGVEVHNAKTKPREEQYNSTYRVVSVLTVLHQDWLNGKEYKCKVSNKALPAPIEKTISKAKGQPREPQVYTLPPSRDELTKNQVSLTCLVKGFYPSDIAVEWESNGQPENNYKTTPPVLDSDGSFFLYSKLTVDKSRWQQGNVFSCSVMHEALHNHYTQKSLSLSPGK
notes: Tested from conditioned media

molecular target: T1, Activin A; experiment: Biacore SPR grade, COS transient conditioned media, 20 nM activin A
Description: Qualitative BIAcore® Assay. E28 and R40 were substituted respectively with other natural amino acids in fusions with IgG1 Fc as described above. Each vActRIIB-IgG1Fc sample from conditioned media was captured on goat anti-human IgG1 Fc antibody (Jackson Immuno Research, cat#109-005-098, lot 63550) coated CMS surface. 20 nM of Activin A was injected over captured sample surfaces using BIACore2000 (BIACore Life Sciences, Piscataway, N.J.). The resulting sensorgrams were normalized to the captured RL (500 RU) of vActRIIB-IgG1Fc variants. The normalized binding response (RU) for some variants are shown in Table 2, and is further described below. Relative binding affinity for activin was also determined by Biacore measurements using conditioned media obtained from mammalian cell expression. Activin A (20 nM) was used to capture soluble receptor polypeptide in the conditioned media and measured SPR signals were normalized. Normalized SPR of +++++: >60, ++++:40-60, +++:20-40, ++:10-20, +: 5-10, −: <5.

First: B1
Second: B2
The “normalized SPR signal” value of the first is higher: 20 to 40 ru for the first, 10 to 20 ru for the second.

B3 and B4 fall in the same range of “normalized SPR signal” value: 5 to 10 ru for the first, 5 to 10 ru for the second.

B5 and B6 fall in the same range of “normalized SPR signal” value: 5 to 10 ru for the first, 5 to 10 ru for the second.

First: B7
Second: B8
The “normalized SPR signal” value of the first is lower: 10 to 20 ru for the first, 20 to 40 ru for the second.

First: B9
Second: B10
The “normalized SPR signal” value of the first is higher: > 60 ru for the first, 5 to 10 ru for the second.

Compared with B11, B12 is higher in “normalized SPR signal” value: 5 to 10 ru for the first, > 60 ru for the second.

B13 and B14 fall in the same range of “normalized SPR signal” value: 10 to 20 ru for the first, 10 to 20 ru for the second.
